Experimental data published in PMC7326820, “Characterization of Purple Acid Phosphatase Family and Functional Analysis of GmPAP7a/7b Involved in Extracellular ATP Utilization in Soybean” (Frontiers in Plant Science, 2020).

B1: GmPAP7a (Glycine max) (protein)
chain: MASSLNQRMLFPLMFVIGMFCLMVTPSIAELPIFKHPPKKQQSLNILVLGDWGRKGTYNQSLVANQMGIVGEKLDIDFVISTGDNFYEDGLKGVDDPAFYQSFVDMYTAPSLQKTWYTVLGNHDYRGDVGAQLSPILKQKDSRWLCMRSFILDGEIVEFFFVDTTPFVEEYFTDPGEHTYDWEGVLPRLAYLSELLKDVDLALAQSKAKWKMVVGHHTINSAGHHGNTEELKQLLVPILEANDVDAYINGHDHCLQHIIDNNSGIHFITSGGGSKAWSGDVKPWKLEELKLYYDGQGFMSMQITKSKADIIFYDAFGKVLHTWSISKDRNVAAWI
B2: GmPAP7b (Glycine max) (protein)
chain: MASSLNQRMVFPVMVVVGMFCLLVTPSIAELPRFKHPPKKQQSLNILVLGDWGRKGTYNQSLVANQMGIVGEKLDIDFVISTGDNFYEDGLKGVDDPAFYQSFIHMYTAPSLQKTWYTVLGNHDYRGDVEAQLSPILKQKDSRWLCMRSFILDGEIVEFFFVDTTPFVEEYFTDPGEHTYDWEGVLPRLAYVSKLLKDVDSALAQSKAKWKMVVGHHTINSAGHHGSTEDLKQLLVPILEANNVDAYINGHDHCLQHIIDNNNGIHFITSGGGSKAWSGDVKPWKLEELKLYYDGQGFMSMQITKSTAYIIFYDAFGKVLHTWSISKDRNVAAWI

Substrate: Nc1ncnc2c1ncn2[C@@H]1O[C@H](COP(=O)(O)OP(=O)(O)OP(=O)(O)O)[C@@H](O)[C@H]1O
Test: Pi release, Lineweaver-Burk plot
Assay type: biochemical, Glycine max
Details: pH and temperature not stated for kinetics (substrate tests in 45 mM Na-acetate pH 5.0)

| Protein | Km [µM] |
| --- | --- |
| B1 | 110 |
| B2 | 66 |
